Results reported in PMC9482650, “Quantitative fragmentomics allow affinity mapping of interactomes” (Nature Communications, 2022).

Legend:
Assay in all cases: holdup assay
Set-up in all cases: key: below the threshold = too weak to quantify, mostly under pKd 3.1 to 4
LNX1_3, Q8TBB1 = target: LNX1_3, Q8TBB1
LDB3, O75112 = target: LDB3, O75112
SNTB1, Q13884 = target: T1, SNTB1, Q13884
T1 sequence (Q13884 107-205, limits assumed, looked up): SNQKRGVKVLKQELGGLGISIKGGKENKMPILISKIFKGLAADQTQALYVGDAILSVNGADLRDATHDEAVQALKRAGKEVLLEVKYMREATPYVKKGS

DLG3_1, Q92796 = target: T2, DLG3_1, Q92796
T2 sequence (Q92796 125-227, limits assumed, looked up): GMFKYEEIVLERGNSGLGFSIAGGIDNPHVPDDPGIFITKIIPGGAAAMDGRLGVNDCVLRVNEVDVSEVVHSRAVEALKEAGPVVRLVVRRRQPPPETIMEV

LIN7B, Q9HAP6 = target: T3, LIN7B, Q9HAP6
T3 sequence (Q9HAP6 88-185, limits assumed, looked up): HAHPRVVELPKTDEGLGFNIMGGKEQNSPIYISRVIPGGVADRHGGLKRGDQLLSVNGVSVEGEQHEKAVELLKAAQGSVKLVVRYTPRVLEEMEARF

MPP6, Q9NZW5 = target: T4, MPP6, Q9NZW5
T4 sequence (Q9NZW5 125-219, limits assumed, looked up): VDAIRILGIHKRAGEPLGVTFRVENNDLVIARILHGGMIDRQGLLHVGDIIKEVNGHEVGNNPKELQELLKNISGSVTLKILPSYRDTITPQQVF

ARHGEF12, Q9NZN5-2 = target: ARHGEF12, Q9NZN5-2
ARHGEF12, Q9NZN5-2, sequence (Q9NZN5 other isoform, or with tags, fused parts or gaps): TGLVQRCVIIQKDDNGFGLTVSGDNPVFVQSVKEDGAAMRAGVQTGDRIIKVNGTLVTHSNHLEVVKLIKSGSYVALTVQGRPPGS

NHERF3_1, Q5T2W1 = target: T5, NHERF3_1, Q5T2W1
T5 sequence (Q5T2W1 4-100, limits assumed, looked up): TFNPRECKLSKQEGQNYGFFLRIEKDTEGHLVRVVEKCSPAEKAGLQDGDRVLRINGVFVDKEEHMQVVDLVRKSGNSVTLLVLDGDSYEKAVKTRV

DLG2_2, Q15700 = target: DLG2_2, Q15700
TJP1_2, Q07157 = target: TJP1_2, Q07157
TJP1_2, Q07157, sequence (Q07157 181-274): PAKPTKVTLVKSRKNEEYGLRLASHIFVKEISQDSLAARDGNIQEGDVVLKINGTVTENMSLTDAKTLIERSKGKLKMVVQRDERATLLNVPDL

LRRC7, Q96NW7 = target: T6, LRRC7, Q96NW7
T6 sequence (Q96NW7 1440-1537, limits assumed, looked up): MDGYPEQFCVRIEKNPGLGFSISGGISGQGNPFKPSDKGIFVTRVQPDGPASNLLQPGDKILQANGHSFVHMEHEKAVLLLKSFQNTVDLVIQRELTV

GRIP2_6, Q9C0E4 = target: GRIP2_6, Q9C0E4
GRIP2_6, Q9C0E4, sequence (Q9C0E4 648-740): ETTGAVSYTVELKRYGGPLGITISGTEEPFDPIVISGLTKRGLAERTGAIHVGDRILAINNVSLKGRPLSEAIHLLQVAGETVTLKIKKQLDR

DLG2_3, Q15700 = target: DLG2_3, Q15700
PDZRN3_1, Q9UPQ7 = target: T7, PDZRN3_1, Q9UPQ7
T7 sequence (Q9UPQ7 244-349, limits assumed, looked up): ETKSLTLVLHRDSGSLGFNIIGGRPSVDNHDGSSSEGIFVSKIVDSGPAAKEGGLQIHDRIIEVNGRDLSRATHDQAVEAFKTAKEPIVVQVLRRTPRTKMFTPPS

GRIP2_3, Q9C0E4 = target: GRIP2_3, Q9C0E4
GRIP2_3, Q9C0E4, sequence (Q9C0E4 238-339): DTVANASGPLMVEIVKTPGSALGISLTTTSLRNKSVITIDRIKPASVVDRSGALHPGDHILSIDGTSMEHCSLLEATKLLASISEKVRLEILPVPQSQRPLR

NHERF3_4, Q5T2W1 = target: T8, NHERF3_4, Q5T2W1
T8 sequence (Q5T2W1 373-468, limits assumed, looked up): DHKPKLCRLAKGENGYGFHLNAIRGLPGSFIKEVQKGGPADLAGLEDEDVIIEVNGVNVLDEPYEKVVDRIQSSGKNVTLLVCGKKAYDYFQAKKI

HTRA4, P83105 = target: T9, HTRA4, P83105
T9 sequence (P83105 378-476, limits assumed, looked up): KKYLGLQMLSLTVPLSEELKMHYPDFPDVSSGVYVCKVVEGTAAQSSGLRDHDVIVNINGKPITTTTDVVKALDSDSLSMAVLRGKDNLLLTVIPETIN

FRMPD2_1, Q68DX3 = target: FRMPD2_1, Q68DX3
FRMPD2_1, Q68DX3, sequence (Q68DX3 770-861): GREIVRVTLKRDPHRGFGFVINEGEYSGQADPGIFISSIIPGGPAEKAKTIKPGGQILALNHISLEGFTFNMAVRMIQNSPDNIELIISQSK

SCRIB_2, Q14160 = target: SCRIB_2, Q14160
SCRIB_2, Q14160, sequence (Q14160 857-960): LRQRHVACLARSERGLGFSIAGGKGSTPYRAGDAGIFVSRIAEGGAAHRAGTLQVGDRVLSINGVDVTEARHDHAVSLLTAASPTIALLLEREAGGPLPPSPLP

PDLIM1, O00151 = target: PDLIM1, O00151
PDLIM1, O00151, sequence (O00151 1-87): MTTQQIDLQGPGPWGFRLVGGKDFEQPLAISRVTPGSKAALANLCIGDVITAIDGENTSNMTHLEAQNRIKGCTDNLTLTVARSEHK

TX1BP3, O14907 = target: T10, TX1BP3, O14907
T10 sequence (O14907 10-122, limits assumed, looked up): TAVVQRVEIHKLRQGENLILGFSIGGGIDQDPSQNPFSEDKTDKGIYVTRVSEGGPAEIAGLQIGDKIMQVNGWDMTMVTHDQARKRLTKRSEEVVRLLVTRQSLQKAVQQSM

Inadl_1, Q8NI35 = target: Inadl_1, Q8NI35
Inadl_1, Q8NI35, sequence (Q8NI35 113-229): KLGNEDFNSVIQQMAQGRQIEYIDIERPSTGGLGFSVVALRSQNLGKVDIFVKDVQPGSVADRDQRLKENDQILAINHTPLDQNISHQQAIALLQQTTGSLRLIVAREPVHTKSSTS

GORASP2, Q9H8Y8 = target: GORASP2, Q9H8Y8
GRIP2_5, Q9C0E4 = target: GRIP2_5, Q9C0E4
GRIP2_5, Q9C0E4, sequence (Q9C0E4 544-642): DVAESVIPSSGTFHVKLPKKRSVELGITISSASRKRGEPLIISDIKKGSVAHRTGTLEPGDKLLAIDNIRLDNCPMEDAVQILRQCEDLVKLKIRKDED

MAST2, Q6P0Q8 = target: MAST2, Q6P0Q8
MAST2, Q6P0Q8, sequence (Q6P0Q8 1099-1202): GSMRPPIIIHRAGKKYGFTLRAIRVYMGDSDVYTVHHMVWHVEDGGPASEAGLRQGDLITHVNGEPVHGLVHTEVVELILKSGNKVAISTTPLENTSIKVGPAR

MPP2, Q14168 = target: T11, MPP2, Q14168
T11 sequence (Q14168 180-250, limits assumed, looked up): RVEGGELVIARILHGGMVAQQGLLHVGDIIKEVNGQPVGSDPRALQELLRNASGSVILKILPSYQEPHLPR

[1] = plain residues with an end cap or a label only (N-terminal biotin on a linker: ado-ado)
[2] = plain residues with an end cap or a label only (N-terminal biotin on a linker: ttds)

LNX1_3, Q8TBB1, sequence (Q8TBB1 500-596): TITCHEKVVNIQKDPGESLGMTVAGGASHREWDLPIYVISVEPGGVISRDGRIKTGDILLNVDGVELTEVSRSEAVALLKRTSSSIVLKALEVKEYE
LDB3, O75112, sequence (O75112 1-94): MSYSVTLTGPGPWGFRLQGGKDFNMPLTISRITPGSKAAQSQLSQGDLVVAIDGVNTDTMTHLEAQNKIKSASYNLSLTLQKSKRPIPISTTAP

TETASVCTKV [SLC23A1, Q9UHI7] was tested, and the pKd (LNX1_3, Q8TBB1; [1]) was 3.5, the pKd (LDB3, O75112; [1]) was “below the threshold” and the pKd (SNTB1, Q13884; [1]) was 4.17. For the same binder, the pKd (DLG3_1, Q92796; [1]) was “below the threshold”, the pKd (LIN7B, Q9HAP6; [1]) was “below the threshold” and the pKd (MPP6, Q9NZW5; [1]) was 3.87. For the same binder, the pKd (ARHGEF12, Q9NZN5-2; [1]) was 3.88, the pKd (NHERF3_1, Q5T2W1; [1]) was 4.54 and the pKd (DLG2_2, Q15700; [1]) was 3.99. The pKd (TJP1_2, Q07157; [1]) was 3.5, the pKd (LRRC7, Q96NW7; [1]) was “below the threshold” and the pKd (GRIP2_6, Q9C0E4; [1]) was “below the threshold”. The pKd (DLG2_3, Q15700; [1]) was “below the threshold”, the pKd (PDZRN3_1, Q9UPQ7; [1]) was 3.53 and the pKd (GRIP2_3, Q9C0E4; [1]) was “below the threshold”. The pKd (NHERF3_4, Q5T2W1; [1]) was 3.7, the pKd (HTRA4, P83105; [1]) was 4.15 and the pKd (FRMPD2_1, Q68DX3; [1]) was 3.76. For the same binder, the pKd (SCRIB_2, Q14160; [1]) was 3.77, the pKd (PDLIM1, O00151; [1]) was “below the threshold” and the pKd (TX1BP3, O14907; [1]) was 3.76. For the same binder, the pKd (Inadl_1, Q8NI35; [1]) was “below the threshold”, the pKd (GORASP2, Q9H8Y8; [1]) was 4.17 and the pKd (GRIP2_5, Q9C0E4; [1]) was “below the threshold”. For the same binder, the pKd (MAST2, Q6P0Q8; [1]) was 5.47 and the pKd (MPP2, Q14168; [1]) was “below the threshold”.

For GGPKEEESPV [SLC16A1, P53985], the pKd (LNX1_3, Q8TBB1; [2]) was “below the threshold”, the pKd (LDB3, O75112; [2]) was “below the threshold” and the pKd (SNTB1, Q13884; [2]) was “below the threshold”. The pKd (DLG3_1, Q92796; [2]) was “below the threshold”, the pKd (LIN7B, Q9HAP6; [2]) was “below the threshold” and the pKd (MPP6, Q9NZW5; [2]) was “below the threshold”. The pKd (ARHGEF12, Q9NZN5-2; [2]) was “below the threshold”, the pKd (NHERF3_1, Q5T2W1; [2]) was 3.63 and the pKd (DLG2_2, Q15700; [2]) was “below the threshold”. The pKd (TJP1_2, Q07157; [2]) was “below the threshold”, the pKd (LRRC7, Q96NW7; [2]) was “below the threshold” and the pKd (GRIP2_6, Q9C0E4; [2]) was “below the threshold”. For the same binder, the pKd (DLG2_3, Q15700; [2]) was “below the threshold”, the pKd (PDZRN3_1, Q9UPQ7; [2]) was “below the threshold” and the pKd (GRIP2_3, Q9C0E4; [2]) was “below the threshold”. The pKd (NHERF3_4, Q5T2W1; [2]) was “below the threshold”, the pKd (HTRA4, P83105; [2]) was “below the threshold” and the pKd (FRMPD2_1, Q68DX3; [2]) was “below the threshold”. For the same binder, the pKd (SCRIB_2, Q14160; [2]) was “below the threshold”, the pKd (PDLIM1, O00151; [2]) was “below the threshold” and the pKd (TX1BP3, O14907; [2]) was “below the threshold”. The pKd (Inadl_1, Q8NI35; [2]) was “below the threshold”, the pKd (GORASP2, Q9H8Y8; [2]) was “below the threshold” and the pKd (GRIP2_5, Q9C0E4; [2]) was “below the threshold”. For the same binder, the pKd (MAST2, Q6P0Q8; [2]) was 4.3 and the pKd (MPP2, Q14168; [2]) was “below the threshold”.

In the case of EEPEERHTEL [CES2, O00748], the pKd (LNX1_3, Q8TBB1; [1]) is reported as “below the threshold”, the pKd (LDB3, O75112; [1]) is reported as “below the threshold” and the pKd (SNTB1, Q13884; [1]) is reported as 4.92. For the same binder, the pKd (DLG3_1, Q92796; [1]) was “below the threshold”, the pKd (LIN7B, Q9HAP6; [1]) was 3.89 and the pKd (MPP6, Q9NZW5; [1]) was “below the threshold”. For the same binder, the pKd (ARHGEF12, Q9NZN5-2; [1]) was 5.03, the pKd (NHERF3_1, Q5T2W1; [1]) was 4.72 and the pKd (DLG2_2, Q15700; [1]) was 3.86. For the same binder, the pKd (TJP1_2, Q07157; [1]) was “below the threshold”, the pKd (LRRC7, Q96NW7; [1]) was 3.61 and the pKd (GRIP2_6, Q9C0E4; [1]) was “below the threshold”. The pKd (DLG2_3, Q15700; [1]) was 3.78, the pKd (PDZRN3_1, Q9UPQ7; [1]) was 4.15 and the pKd (GRIP2_3, Q9C0E4; [1]) was “below the threshold”. The pKd (NHERF3_4, Q5T2W1; [1]) was 4.48, the pKd (HTRA4, P83105; [1]) was “below the threshold” and the pKd (FRMPD2_1, Q68DX3; [1]) was “below the threshold”. The pKd (SCRIB_2, Q14160; [1]) was 3.79, the pKd (PDLIM1, O00151; [1]) was 3.59 and the pKd (TX1BP3, O14907; [1]) was “below the threshold”. The pKd (Inadl_1, Q8NI35; [1]) was “below the threshold”, the pKd (GORASP2, Q9H8Y8; [1]) was “below the threshold” and the pKd (GRIP2_5, Q9C0E4; [1]) was “below the threshold”. The pKd (MAST2, Q6P0Q8; [1]) was 5.44 and the pKd (MPP2, Q14168; [1]) was “below the threshold”.
